# Results from patent US20030124119A1 (published 2003).
# Target: T1, human PTHrP (1-34) (human)
# T1 construct: Coated on ELISA plates (Peptide Research Institute) and used in RIA screening and the cAMP assay
# Experiment: solid phase RIA of hybridoma culture supernatants
# Description: The screening of hybridomas was performed by determining the presence of PTHrP-recognition antibodies in the culture supernatant of the wells in which cell growth had been observed in HAT medium, by solid phase RIA method. The hybridomas were collected from the wells in which the binding ability to the PTHrP-recognition antibodies had been confirmed. The hybridomas thus obtained was suspended into RPMI-1640 medium containing 15% FCS supplemented with OPI-supplement (Sigma), followed by unification of the hybridomas by limiting dilution method.
row,Binder,binding result
1,"mouse monoclonal antibody #23-57-137-1 against human PTHrP (1-34) (antibody, V domains shown, Mouse antibody from the hybridoma (FERM BP-5631); mouse λ L-chain; tested as hybridoma culture supernatant) VH: EVQLVESGGDLVKPGGSLKLSCAASGFTFSSYGMSWIRQTPDKRLEWVATISSGGSYTYYPDSVKGRFTISRDNAKNTLYLQMSSLKSEDTAMFYCARQTTMTYFAYWGQGTLVTVSA VL: QLVLTQSSSASFSLGASAKLTCTLSSQHSTYTIEWYQQQPLKPPKYVMDLKQDGSHSTGDGIPDRFSGSSSGADRYLSISNIQPEDEAMYICGVGDTIKEQFVYVFGGGTKVTVLG",binds

# Target: T1, human PTHrP (1-34)
# Experiment: ELISA, plate coated with 1 µg/ml human PTHrP (1-34)
# Description: An ELISA plate for the determination of antigen-binding ability was prepared as follows. Each well of a 96-well ELISA plate was coated with 100 μl of a coating buffer supplemented with 1 μg/ml of human PTHrP (1-34) (Peptide Research Institute), and then blocked with 200 μl of a dilution buffer. Each well was added with each of the serial dilutions of the COS-7 cell culture supernatant in which each of the chimeric antibodies had been expressed, or added with each of the serial dilutions of each of the chimeric antibodies per se in a purified form. After the plate was incubated at room temperature and washed with PBS-Tween 20, each well of the plate was added with 100 μl of a solution of alkaline phosphatase-conjugated goat anti-human IgG antibodies (TAGO). After the plate was incubated at room temperature and washed with PBS-Tween 20, each well of the plate was added with 1 mg/ml of a substrate solution (“Sigma 104”, p-nitrophenylphosphoric acid, SIGMA). The solution was measured on its absorbance at 405 nm using Microplate Reader (Bio Rad).
# An ELISA plate for determining antigen-binding ability was prepared as follows. Each well of a 96-well ELISA plate (Maxisorp, NUNC) was coated with 100 μl of a coating buffer containing 1 μg/ml of human PTHrP (1-34) and then blocked with 200 μl of a dilution buffer. Subsequently, each well was added with each of the serial dilutions of the COS-7 cell culture supernatant in which each of the hybrid antibodies and humanized antibodies was expressed, or added with each of the serial dilutions of each of the hybrid antibodies and humanized antibodies in a purified form. The plate was incubated at room temperature and washed with PBS-Tween 20. Subsequently, each well was added with 100 μl of alkaline phosphatase-conjugated goat anti-human IgG antibody (TAGO). The plate was incubated at room temperature and washed with PBS-Tween 20. Subsequently, each well was added with 1 mg/ml of a substrate solution (“Sigma 104”, p-nitrophenylphosphoric acid, SIGMA). The solution was measured on its absorbance at 405 nm using Microplate Reader (Bio Rad).
row,Binder,binding result
1,"chimeric #23-57-137-1 antibody with L-chain λ chain C-region (antibody, V domains shown, expressed in COS-7 cells; also called chimeric antibody; MBC1HcDNA/pCOS1 and MBC1L(λ)/neo) VH: EVQLVESGGDLVKPGGSLKLSCAASGFTFSSYGMSWIRQTPDKRLEWVATISSGGSYTYYPDSVKGRFTISRDNAKNTLYLQMSSLKSEDTAMFYCARQTTMTYFAYWGQGTLVTVSA VL: QLVLTQSSSASFSLGASAKLTCTLSSQHSTYTIEWYQQQPLKPPKYVMDLKQDGSHSTGDGIPDRFSGSSSGADRYLSISNIQPEDEAMYICGVGDTIKEQFVYVFGGGTKVTVLG",binds
2,"chimeric #23-57-137-1 antibody with L-chain κ chain C-region (antibody, V domains shown, Mouse V-regions with human Cγ1 H-chain C-region and human κ C-region; expressed in COS-7 cells; also called chimeric antibody; MBC1HcDNA/pCOS1 and MBC1L(κ)/neo) VH: EVQLVESGGDLVKPGGSLKLSCAASGFTFSSYGMSWIRQTPDKRLEWVATISSGGSYTYYPDSVKGRFTISRDNAKNTLYLQMSSLKSEDTAMFYCARQTTMTYFAYWGQGTLVTVSA VL: QLVLTQSSSASFSLGASAKLTCTLSSQHSTYTIEWYQQQPLKPPKYVMDLKQDGSHSTGDGIPDRFSGSSSGADRYLSISNIQPEDEAMYICGVGDTIKEQFVYVFGGGTKVTVLG",binds
3,"humanized #23-57-137-1 antibody having L-chain version “s” (H-chain version “a”) (antibody, V domains shown, also called hMBC1Lsλ) VH: QVQLVESGGGVVQPGRSLRLSCAASGFTFSSYGMSWVRQAPGKGLEWVATISSGGSYTYYPDSVKGRFTISRDNSKNTLYLQMNSLRAEDTAVYYCARQTTMTYFAYWGQGTLVTVSS VL: QLVLTQSPSASASLGASVKLTCTLSSQHSTYTIEWYQQQPEKGPKYVMDLKQDGSHSTGDGIPDRFSGSSSGAERYLTISSLQSEDEADYICGVGDTIKEQFVYVFGGGTKLTVLG",binds
4,"antibody having both a humanized H-chain version “a” and a chimeric L-chain (antibody, V domains shown, Human Cγ1 H-chain C-region) VH: QVQLVESGGGVVQPGRSLRLSCAASGFTFSSYGMSWVRQAPGKGLEWVATISSGGSYTYYPDSVKGRFTISRDNSKNTLYLQMNSLRAEDTAVYYCARQTTMTYFAYWGQGTLVTVSS VL: QLVLTQSSSASFSLGASAKLTCTLSSQHSTYTIEWYQQQPLKPPKYVMDLKQDGSHSTGDGIPDRFSGSSSGADRYLSISNIQPEDEAMYICGVGDTIKEQFVYVFGGGTKVTVLG",binds
5,"humanized #23-57-137-1 antibody having L-chain version “j” (H-chain version “a”) (antibody, V domains shown, Human Cγ1 and human λ C-regions; also called hMBC1Ljλ) VH: QVQLVESGGGVVQPGRSLRLSCAASGFTFSSYGMSWVRQAPGKGLEWVATISSGGSYTYYPDSVKGRFTISRDNSKNTLYLQMNSLRAEDTAVYYCARQTTMTYFAYWGQGTLVTVSS VL: QLVLTQSPSASASLGASVKLTCTLSSQHSTYTIEWYQQQPEKGPKYLMDLKQDGSHSTGDGIPDRFSGSSSGAERYLTISSLQSEDEADYYCGVGDTIKEQFVYVFGGGTKLTVLG",binds
6,"humanized #23-57-137-1 antibody having L-chain version “l” (H-chain version “a”) (antibody, V domains shown, Human Cγ1 and human λ C-regions; also called hMBC1Llλ) VH: QVQLVESGGGVVQPGRSLRLSCAASGFTFSSYGMSWVRQAPGKGLEWVATISSGGSYTYYPDSVKGRFTISRDNSKNTLYLQMNSLRAEDTAVYYCARQTTMTYFAYWGQGTLVTVSS VL: QLVLTQSPSASASLGASVKLTCTLSSQHSTYTIEWYQQQPEKGPKYVMDLKQDGSHSTGDGIPDRFSGSSSGAERYLTISSLQSEDEADYYCGVGDTIKEQFVYVFGGGTKLTVLG",binds
7,"humanized #23-57-137-1 antibody having L-chain version “m” (H-chain version “a”) (antibody, V domains shown, Human Cγ1 and human λ C-regions; also called hMBC1Lmλ) VH: QVQLVESGGGVVQPGRSLRLSCAASGFTFSSYGMSWVRQAPGKGLEWVATISSGGSYTYYPDSVKGRFTISRDNSKNTLYLQMNSLRAEDTAVYYCARQTTMTYFAYWGQGTLVTVSS VL: QLVLTQSPSASASLGASVKLTCTLSSQHSTYTIEWYQQQPEKGPRYLMDLKQDGSHSTGDGIPDRFSGSSSGAERYLTISSLQSEDEADYYCGVGDTIKEQFVYVFGGGTKLTVLG",binds
8,"humanized #23-57-137-1 antibody having L-chain version “o” (H-chain version “a”) (antibody, V domains shown, Human Cγ1 and human λ C-regions; also called hMBC1Loλ) VH: QVQLVESGGGVVQPGRSLRLSCAASGFTFSSYGMSWVRQAPGKGLEWVATISSGGSYTYYPDSVKGRFTISRDNSKNTLYLQMNSLRAEDTAVYYCARQTTMTYFAYWGQGTLVTVSS VL: QLVLTQSPSASASLGASVKLTCTLSSQHSTYTIEWYQQQPEKGPRYVMDLKQDGSHSTGDGIPDRFSGSSSGAERYLTISSLQSEDEADYYCGVGDTIKEQFVYVFGGGTKLTVLG",binds
9,"humanized #23-57-137-1 antibody having L-chain version “q” (H-chain version “a”) (antibody, V domains shown, Human Cγ1 and human λ C-regions; also called hMBC1Lqλ) VH: QVQLVESGGGVVQPGRSLRLSCAASGFTFSSYGMSWVRQAPGKGLEWVATISSGGSYTYYPDSVKGRFTISRDNSKNTLYLQMNSLRAEDTAVYYCARQTTMTYFAYWGQGTLVTVSS VL: QLVLTQSPSASASLGASVKLTCTLSSQHSTYTIEWYQQQPEKGPKYLMDLKQDGSHSTGDGIPDRFSGSSSGAERYLTISSLQSEDEADYICGVGDTIKEQFVYVFGGGTKLTVLG",binds
10,"humanized #23-57-137-1 antibody having L-chain version “r” (H-chain version “a”) (antibody, V domains shown, also called hMBC1Lrλ) VH: QVQLVESGGGVVQPGRSLRLSCAASGFTFSSYGMSWVRQAPGKGLEWVATISSGGSYTYYPDSVKGRFTISRDNSKNTLYLQMNSLRAEDTAVYYCARQTTMTYFAYWGQGTLVTVSS VL: QLVLTQSPSASASLGASVKLTCTLSSQHSTYTIEWYQQQPEKGPRYLMDLKQDGSHSTGDGIPDRFSGSSSGAERYLTISSLQSEDEADYICGVGDTIKEQFVYVFGGGTKLTVLG",binds
11,"humanized #23-57-137-1 antibody having L-chain version “t” (H-chain version “a”) (antibody, V domains shown, Human Cγ1 and human λ C-regions; also called hMBC1Ltλ) VH: QVQLVESGGGVVQPGRSLRLSCAASGFTFSSYGMSWVRQAPGKGLEWVATISSGGSYTYYPDSVKGRFTISRDNSKNTLYLQMNSLRAEDTAVYYCARQTTMTYFAYWGQGTLVTVSS VL: QLVLTQSPSASASLGASVKLTCTLSSQHSTYTIEWYQQQPEKGPRYVMDLKQDGSHSTGDGIPDRFSGSSSGAERYLTISSLQSEDEADYICGVGDTIKEQFVYVFGGGTKLTVLG",binds
12,"mouse FR1,2/human FR3,4 hybrid antibody (L-chain m/hMBC1Ldλ, H-chain hMBC1HcDNA) (antibody, V domains shown, Human Cγ1 and human λ C-regions) VH: QVQLVESGGGVVQPGRSLRLSCAASGFTFSSYGMSWVRQAPGKGLEWVATISSGGSYTYYPDSVKGRFTISRDNSKNTLYLQMNSLRAEDTAVYYCARQTTMTYFAYWGQGTLVTVSS VL: QLVLTQSSSASFSLGASAKLTCTLSSQHSTYTIEWYQQQPLKPPKYVMDLKQDGSHSTGDGIPDRFSGSSSGAERYLTISSLQSEDEADYICGVGDTIKEQFVYVFGGGTKLTVL",binds
13,"human FR1/mouse FR2,3,4 hybrid antibody (L-chain hmmMBC1L(λ), H-chain hMBC1HcDNA) (antibody, V domains shown, Human Cγ1 and human λ C-regions; also called FR1/FR2 hybrid antibody) VH: QVQLVESGGGVVQPGRSLRLSCAASGFTFSSYGMSWVRQAPGKGLEWVATISSGGSYTYYPDSVKGRFTISRDNSKNTLYLQMNSLRAEDTAVYYCARQTTMTYFAYWGQGTLVTVSS VL: QLVLTQSPSASASLGASVKLTCTLSSQHSTYTIEWYQQQPLKPPKYVMDLKQDGSHSTGDGIPDRFSGSSSGADRYLSISNIQPEDEAMYICGVGDTIKEQFVYVFGGGTKVTVL",binds
14,"mouse FR1,2/human FR3,4 hybrid antibody (L-chain m/hMBC1Laλ, H-chain hMBC1HcDNA) (antibody, V domains shown, Human Cγ1 and human λ C-regions) VH: QVQLVESGGGVVQPGRSLRLSCAASGFTFSSYGMSWVRQAPGKGLEWVATISSGGSYTYYPDSVKGRFTISRDNSKNTLYLQMNSLRAEDTAVYYCARQTTMTYFAYWGQGTLVTVSS VL: QLVLTQSSSASFSLGASAKLTCTLSSQHSTYTIEWYQQQPLKPPKYVMDLKQDGSHSTGDGIPDRFSGSSSGAERYLTISSLQSEDEADYYCGVGDTIKEQFVYVFGGGTKLTVL",binds
